Results as given in PMC8326762, “A Small Molecule Inhibitor of Pex3–Pex19 Interaction Disrupts Glycosome Biogenesis and Causes Lethality in Trypanosoma brucei” (Frontiers in Cell and Developmental Biology, 2021).

Experiments:
TbPex3 = target: T1, TbPex3 (Trypanosoma brucei, UniProt Q383Q3); assay: pull-down and MST with purified MBP-TbPex3 and NT-647-labeled His-TbPex19; inhibition of protein-protein interaction; format: binding
T1 construct: gene Tb11.01.2020; MBP fusion to TbPex3 (with 6 × His-TbPex19), recombinant from E. coli; with TbPex19

His-HsPex19 (human) [1] = target: His-HsPex19 (human) (UniProt P40855); assay: MST; Monolith NT.115; 100 nM each of NT-647-labeled His-Pex19 and MBP-Pex3 with DMNQ titrated from 3 nM to 100 μM; apparent
Sequence of His-HsPex19 (human) (P40855 whole entry): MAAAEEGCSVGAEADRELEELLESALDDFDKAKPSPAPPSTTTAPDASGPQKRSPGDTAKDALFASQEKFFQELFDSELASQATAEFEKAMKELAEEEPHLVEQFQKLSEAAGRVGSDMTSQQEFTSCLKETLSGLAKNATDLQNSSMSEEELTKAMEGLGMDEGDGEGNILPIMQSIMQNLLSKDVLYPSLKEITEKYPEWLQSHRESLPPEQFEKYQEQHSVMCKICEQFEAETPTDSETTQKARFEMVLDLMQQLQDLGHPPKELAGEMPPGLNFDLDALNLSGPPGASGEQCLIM

His-HsPex19 (human) [2] = target: His-HsPex19 (human) (UniProt P40855); assay: MST; Monolith NT.115; MBP-Pex3 (0–2.5 μM) titrated into 100 nM NT-647-labeled His-Pex19; 50 mM Tris–HCl, pH 7.4, 150 mM NaCl, 10 mM MgCl2, 0.05% Tween-20
His-TbPex19 (T. brucei) [3] = assay: MST; Monolith NT.115; 100 nM each of NT-647-labeled His-Pex19 and MBP-Pex3 with DMNQ titrated from 3 nM to 100 μM; apparent
His-TbPex19 (T. brucei) [4] = assay: MST; Monolith NT.115; MBP-Pex3 (0–2.5 μM) titrated into 100 nM NT-647-labeled His-Pex19; 50 mM Tris–HCl, pH 7.4, 150 mM NaCl, 10 mM MgCl2, 0.05% Tween-20

Molecule: COC1=C(OC)C(=O)c2ccccc2C1=O [2,3-dimethoxy-1,4-naphthoquinone]
- pull-down and MST with purified MBP-TbPex3 and NT-647-labeled His-TbPex19; inhib (TbPex3): 39.6 ± 0.86 µM

Molecule: MBP-HsPex3 (from UniProt P56589 1-373) (natural protein)
- KD with DMNQ titrated in (His-HsPex19 (human) [1]): 14.5 nM
- Kd (His-HsPex19 (human) [2]): 4.37 nM

Molecule: MBP-TbPex3 (natural protein)
- apparent KD with DMNQ titrated in (His-TbPex19 (T. brucei) [3]): 39600 nM
- Kd (His-TbPex19 (T. brucei) [4]): 3.8 nM
